Experiment in all cases: initial velocities of diol formation, Michaelis-Menten fit
Format in all cases: biochemical, Rhodococcus erythropolis
Holding throughout (conditions): buffer and temperature of kinetics not given (activity assays: 50 mM HEPES pH 8, 30 °C)

Substrate in data set [1]: C1CC2OC2C1
The source says: (§1) initial velocities of diol formation, Michaelis-Menten fit on LEH-P (thermostable limonene epoxide hydrolase)

Substrate in data set [2]: C[C@@H]1O[C@@H]1C
Description: as §1

Substrate in data set [3]: c1ccc([C@H]2O[C@H]2c2ccccc2)cc1
Description: as §1

Where [4] appears, read: variant 43A, single measurement, margin from average coefficient of variation.

B1: LEH-P (thermostable limonene epoxide hydrolase) (Rhodococcus erythropolis; A19K/E45K/N92K/S15P/T2A/T76K/T85V/Y96F) (protein)
chain: MASKIEQPRWASKDPAAGKASTPDEKIVLEFMDALTSNDAAKLIKYFAEDTMYQNMPLPPAYGRDAVEQTLAGLFKVMSIDAVEVFHIGSSKGLVFTERVDVLRALPTGKSYNLSILGVFQLTEGKITGWRDYFDLREFEEAVDLPLRG
notes: N-terminal hexa-His tag; expressed in E. coli; dimeric
Turning to B1, in data set [1], the Michaelis-Menten constant (Km) (in general, the concentration of substrate that gives half-maximal velocity) worked out at 4200 ± 200 µM; the catalytic constant (kcat) (commonly the number of substrate molecules converted per active site and unit of time at saturation) came to 0.035 ± 0.004 s⁻¹; the kcat/Km (in general, the turnover number divided by the Michaelis constant) amounted to 7.9 M⁻¹ s⁻¹. In data set [2], the Km was determined as 18000 ± 1000 µM, the turnover number (kcat) worked out at 0.056 ± 0.01 s⁻¹ and the catalytic efficiency (kcat/Km) is 3.1 M⁻¹ s⁻¹. Also, in data set [3], the Michaelis constant (Km) worked out at 370 ± 20 µM, the kcat stood at 0.147 ± 0.012 s⁻¹ and the kcat/Km came out at 406 M⁻¹ s⁻¹.

B2: LEH-P (thermostable limonene epoxide hydrolase) (Rhodococcus erythropolis; A19K/E45K/F139L/I80W/L103V/L35G/M32L/N92K/S15P/T2A/T76K/T85V/Y96F) (protein)
chain: MASKIEQPRWASKDPAAGKASTPDEKIVLEFLDAGTSNDAAKLIKYFAEDTMYQNMPLPPAYGRDAVEQTLAGLFKVMSWDAVEVFHIGSSKGLVFTERVDVVRALPTGKSYNLSILGVFQLTEGKITGWRDYFDLRELEEAVDLPLRG
notes: as for B1
In the case of B2, in data set [3] (variant 60A), the Km is 60 ± 10 µM, the kcat was 0.052 ± 0.006 s⁻¹ and the catalytic efficiency (kcat/Km) was determined as 890 M⁻¹ s⁻¹.

B3: LEH-P (thermostable limonene epoxide hydrolase) (Rhodococcus erythropolis; A19K/E45K/I116F/L103I/L114M/L35M/M32L/M78I/N92K/S15P/T2A/T76K/T85V/Y96F) (protein)
chain: MASKIEQPRWASKDPAAGKASTPDEKIVLEFLDAMTSNDAAKLIKYFAEDTMYQNMPLPPAYGRDAVEQTLAGLFKVISIDAVEVFHIGSSKGLVFTERVDVIRALPTGKSYNMSFLGVFQLTEGKITGWRDYFDLREFEEAVDLPLRG
notes: as for B1
As for B3, in data set [3] (variant 52A), the Km is 160 ± 30 µM, the turnover number (kcat) was determined as 0.003 ± 0.001 s⁻¹ and the kcat/Km was found to be 19 M⁻¹ s⁻¹.

B4: LEH-P (thermostable limonene epoxide hydrolase) (Rhodococcus erythropolis; A19K/E45K/F139L/I116V/I80F/L103I/M32A/M78I/N92K/S15P/T2A/T76K/T85V/Y96F) (protein)
chain: MASKIEQPRWASKDPAAGKASTPDEKIVLEFADALTSNDAAKLIKYFAEDTMYQNMPLPPAYGRDAVEQTLAGLFKVISFDAVEVFHIGSSKGLVFTERVDVIRALPTGKSYNLSVLGVFQLTEGKITGWRDYFDLRELEEAVDLPLRG
notes: as for B1
As for B4, in data set [1] (variant 24A), the Km stood at 3000 ± 200 µM, the kcat came to 0.005 ± 0.001 s⁻¹ and the kcat/Km was found to be 1.9 M⁻¹ s⁻¹.

B5: LEH-P (thermostable limonene epoxide hydrolase) (Rhodococcus erythropolis; A19K/E45K/F134Y/F139W/L103V/L74I/N92K/S15P/T2A/T76K/T85V/Y96F) (protein)
chain: MASKIEQPRWASKDPAAGKASTPDEKIVLEFMDALTSNDAAKLIKYFAEDTMYQNMPLPPAYGRDAVEQTLAGIFKVMSIDAVEVFHIGSSKGLVFTERVDVVRALPTGKSYNLSILGVFQLTEGKITGWRDYYDLREWEEAVDLPLRG
notes: as for B1
In the case of B5, in data set [1] (setting [4]), the Km is 35000 ± 4000 µM, the kcat was 0.017 ± 0.005 s⁻¹ and the kcat/Km was 0.48 M⁻¹ s⁻¹.

B6: LEH-P (thermostable limonene epoxide hydrolase) (Rhodococcus erythropolis; A19K/E45K/F139L/I116F/L103I/L114M/L35M/M32L/N92K/S15P/T2A/T76K/T85V/Y96F) (protein)
chain: MASKIEQPRWASKDPAAGKASTPDEKIVLEFLDAMTSNDAAKLIKYFAEDTMYQNMPLPPAYGRDAVEQTLAGLFKVMSIDAVEVFHIGSSKGLVFTERVDVIRALPTGKSYNMSFLGVFQLTEGKITGWRDYFDLRELEEAVDLPLRG
notes: as for B1
Turning to B6, in data set [3] (variant 41B), the Km turned out to be 190 ± 20 µM, the kcat was 0.002 ± 0.001 s⁻¹ and the kcat/Km was determined as 10.5 M⁻¹ s⁻¹.

The record behind these values is publication PMC7383614, “Computational Design of Enantiocomplementary Epoxide Hydrolases for Asymmetric Synthesis of Aliphatic and Aromatic Diols” (Chembiochem, 2020).
